# B1: LINE1-mini (parent)
# chain: GGCAGAGCUCAACACAGCGUGGCAAAGUGGCUGUGGCUAGACUGCC
# Variants of: B1
# Assay: self-cleavage, relative activity (ratio to wild type); higher = more cleavage; in vitro, sequencing; the parent is a self-cleaving ribozyme
row,Variant,self-cleavage
1,A11C G27C,0.04
2,C42G,0.07
3,A11U G44A,0.05
4,G22U A39G,0.08
5,A6C G17A,0.17
6,G2U G36U,0.04
7,G7C G40A,0.13
8,C23U,1.03
9,A11G A41C,0.03
10,G2C G35U,0.23
11,G17A G27A,0.42
12,A12U C46G,0.45
13,A6U G29C,0.34
14,U34C G35U,0.18
15,G33U U43G,0.02
16,G19U U32G,0.1
17,G22C C31G,0.08
18,A4G U28A,0.13
19,G21C A25G,0.94
20,G5C G17A,0.04
21,A6G G21U,0.13

row,Variant,self-cleavage
1,A6C A24G,0.49
2,G7C U32G,0.05
3,G1A G7A,0.51
4,G17U U32C,0.18
5,U32C G33A,0.05
6,G17C A26G,0.07
7,C3G,0.48
8,G22A G33U,0.22
9,C3G A24C,0.35
10,C8G G19A,0.15
11,C8A A26G,0.21
12,G2U G17C,0.05
13,C15G G21C,0.17
14,G36U G44A,0.06
15,C31G U32C,0.08
16,U9A U38A,0.08
17,G2A G5A,0.53
18,G2C U20G,0.05
19,G19U U43C,0.07
20,A24U U32A,0.07
21,U20C C23G,0.44

row,Variant,self-cleavage
1,C3G G19A,0.59
2,C31G,0.1
3,U9G C45U,0.16
4,G30C U34A,0.12
5,G21A G44A,0.98
6,G27C U43C,0.07
7,C8A G29A,0.26
8,G40C C46A,0.1
9,A16G U20C,0.37
10,G7C G36A,0.2
11,C31U G36C,0.07
12,G17A C45U,0.25
13,C18G C31U,0.02
14,C3U G22A,0.34
15,U32A G33U,0.07
16,G30U A41G,0.35
17,U32A U43C,0.04
18,C10U G17A,0.34
19,C37G A41G,0.03
20,G2U A41C,0.02
21,A16C G21A,0.14

row,Variant,self-cleavage
1,A16U G29C,0.53
2,U9A A26G,0.09
3,G2U G17A,0.03
4,G2U C45A,0.45
5,G7U G29U,0.15
6,C10A G44C,0.07
7,C3G G44A,0.35
8,U20A G33A,0.13
9,G17U G33A,0.06
10,A24U C46A,2.01
11,A25U G30A,1.17
12,G1C C10A,0.02
13,U9C A12C,0.04
14,G5A C13G,0.08
15,G5C A25G,0.06
16,C10A C18U,0.07
17,G17U C18G,0.12
18,C31U A39G,0.05
19,C13U U20G,0.1
20,A11C A24G,0.06
21,A14G G44A,0.22

# From the RNAGym collection of RNA variant scans (doi:10.7554/elife.90254)
